US20250236682A1 (published 2025)

Target: human FcγRIIIA (176V isoform, R&D systems, 4325-FC) (human, UniProt P08637 17-208)
Assay: BLI

Chain of human FcγRIIIA (176V isoform, R&D systems, 4325-FC) (P08637 17-208 F176V): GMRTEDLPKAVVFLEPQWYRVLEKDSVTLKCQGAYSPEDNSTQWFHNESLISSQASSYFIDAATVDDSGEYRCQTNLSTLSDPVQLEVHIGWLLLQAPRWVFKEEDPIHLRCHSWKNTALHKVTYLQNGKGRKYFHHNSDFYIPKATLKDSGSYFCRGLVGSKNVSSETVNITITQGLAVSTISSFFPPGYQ

Kd: 0.11 nM
B1: H01DE4 (antibody)
heavy: not shown
light: not shown
chain: DKTHTCPPCPAPELLGGPDVFLFPPKPKDTLMISRTPEVTCVVVDVSHEDPEVKFNWYVDGVEVHNAKTKPREEQYNSTYRVVSVLTVLHQDWLNGKEYKCKVSNKALPAPEEKTISKAKGQPREPQVCTLPPSREEMTKNQVSLSCAVKGFYPSDIAVEWESNGQPENNYKTTPPVLDSDGSFFLVSKLTVDKSRWQQGNVFSCSVMHEALHNHYTQKSLSLSPGK
